The source of these data is patent US20250326813A1 (ELPIS BIOPHARMACEUTICALS, published 2025).

Assay [1] addresses T1, human IL2Rβ Fc fusion protein (human, UniProt P14784 27-239).
T1 construct: also called ILR2β; CD122; not shown: Fc part
T1 sequence (looked up): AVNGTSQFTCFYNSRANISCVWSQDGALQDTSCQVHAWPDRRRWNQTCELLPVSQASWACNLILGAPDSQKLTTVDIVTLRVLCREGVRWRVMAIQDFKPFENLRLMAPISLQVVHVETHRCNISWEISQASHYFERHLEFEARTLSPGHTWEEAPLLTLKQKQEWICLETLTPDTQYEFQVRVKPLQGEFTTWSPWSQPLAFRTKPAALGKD
Kind of assay: ELISA on coated receptor-Fc, anti-His detection; grade by OD450 (weak: 0.3-0.7). How it is done:
(§1) Mammalian cell-produced agonists were characterized for their binding activities to respective IL2Rβ and IL2Rα receptors by ELISA. Briefly, 384 well plate was immobilized with human IL2Rα and IL2Rβ Fc fusion proteins at a final concentration of 2 μg/mL in 1× PBS in total volume of 25 μL per well. The plate was incubated overnight at 4° C. and blocked with 80 μL of superblock per well for 1 hour. The purified clones were added to IL2Rα or IL-2Rβ wells in parallel in duplicates as a titration, with the highest concentration of 1 μM, followed by a 10 point 5× serial dilution of the clones. The binding activity was detected by adding 25 μL of anti-His HRP diluted at 1:5000 in 1× PBST. In between each step, the plate was washed three times with 1× PBST using a plate washer. The plate was then developed with 25 μL of TMB substrate for five minutes and stopped by adding 25 μL of 2N sulfuric acid. The plate was read at OD450 nm Biotek plate reader and the bar graph at 1 μM of IL2 was generated with Prism 8.1 software (FIG. 2).

Assay [2] deals with T2, human IL2Rα Fc fusion protein (human, UniProt P01589 22-213, limits assumed).
T2 construct: also called CD25; not shown: Fc part
T2 sequence (looked up): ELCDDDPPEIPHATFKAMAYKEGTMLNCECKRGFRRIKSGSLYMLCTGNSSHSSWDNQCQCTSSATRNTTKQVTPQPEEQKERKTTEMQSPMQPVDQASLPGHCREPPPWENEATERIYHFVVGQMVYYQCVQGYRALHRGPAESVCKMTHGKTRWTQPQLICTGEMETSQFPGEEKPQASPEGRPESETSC
The assay is described as above. As to the method:
as §1

Assay [3] concerns the target T1, human IL2Rβ Fc fusion protein. Kind of assay: ELISA on coated receptor-Fc, anti-His detection, single point 10 µM. How it is done:
(§2) Back-mutations were characterized for their binding activities to IL2Rβ and IL2Rα receptors by ELISA. Briefly, 384 well plate was immobilized with human IL2Rα and IL2Rβ Fc fusion proteins at a final concentration of 2 μg/mL in 1× PBS in total volume of 25 μL per well. The plate was incubated overnight at 4° C. and blocked with 80 μL of superblock per well for 1 hour. […] The IL2 mutant binding was detected by adding 25 μL of anti-His HRP diluted at 1:5000 in 1× PBST. In between each step, the plate was washed three times with 1× PBST using a plate washer. […] The plate was then developed with 25 μL of TMB substrate for five minutes and stopped by adding 25 μl of 2N sulfuric acid. The plate was read at OD450 nm Biotek plate reader (Table 6) and the data was analyzed with Prism 8.1 software to generate bar graph (FIG. 5).

Assay [4] concerns the target T2, human IL2Rα Fc fusion protein. Described as above. How it is done:
as §2

The target in assay [5] is T1, human IL2Rβ Fc fusion protein. Kind of assay: ELISA: human IL2Rβ Fc fusion coated at 2 µg/mL, purified His-tagged IL2 titrated from 1 µM in 5x steps, anti-His HRP, OD450. As to the method: as §1
Assay [6] deals with T2, human IL2Rα Fc fusion protein. The experiment in a line: ELISA: human IL2Rα Fc fusion coated at 2 µg/mL, purified His-tagged IL2 titrated from 1 µM in 5x steps, anti-His HRP, OD450. As to the method:
as §1

For assay [7] the target is unchanged. The experiment in a line: ELISA on coated receptor-Fc, anti-His detection. As to the method: as §1

B1: EP567, mammalian cell-produced (ligand)
chain: APASSSTKKTQLQLEHLLLDLQMILNGINNYKNPLLTDMLTRKFYMPKKATELKHLQCLEEELKPLEEVLNLAQSKNFHLSLREPIGNIVTSVRELKGSETTFMCEYADETATIVEFLNRWITFSQSIISTLT
notes: also called 2021EP21-C04
For the molecule B1, the OD450 in assay [1] and in assay [2] was 0.3 to 0.7 od throughout.

B2: EP669, EP575 back-mutation clone (ligand)
chain: APASSSTKKTQLQLEHLLLDLQMILNGINNYKNPLLTDMLTRKFYMPKKATELKHLQCLEEELKPLEEVLNLAQSKNFHLRPKGLISDISNIVLALKGSETTFMCEYADETATIVEFLNRWITFSQSIISTLT
notes: Mammalian-produced, His-tagged
In the case of B2, the “Average OD (450 nm)” value in assay [3] and in assay [4] was 0.082 OD450 each time.

B3: EP675, EP575 back-mutation clone (ligand)
chain: APASSSTKKTQLQLEHLLLDLQMILNGINNYKNPLLTDMLTRKFYMPKKATELKHLQCLEEELKPLEEVLNLAQSKNFHLRNKGLISNISNIVLALKGSETTFMCEYADETATIVEFLNRWITFSQSIISTLT
notes: as for B2
Consider B3, for which the “Average OD (450 nm)” value in assay [3] stood at 0.082 OD450; in assay [4] it was 0.084 OD450.

B4: EP668, EP575 back-mutation clone (ligand)
chain: APASSSTKKTQLQLEHLLLDLQMILNGINNYKNPLLTDMLTRKFYMPKKATELKHLQCLEEELKPLEEVLNLAQSKNFHLRPRGLIGDISNIVLALKGSETTFMCEYADETATIVEFLNRWITFSQSIISTLT
notes: as for B2
Regarding B4, the “Average OD (450 nm)” value in assay [3] is 0.17 OD450; in assay [4], 0.113 OD450.

B5: EP671, EP575 back-mutation clone (ligand)
chain: APASSSTKKTQLQLEHLLLDLQMILNGINNYKNPLLTDMLTRKFYMPKKATELKHLQCLEEELKPLEEVLNLAQSKNFHLRPKGLIGDINNIVLALKGSETTFMCEYADETATIVEFLNRWITFSQSIISTLT
notes: as for B2
B5: the “Average OD (450 nm)” value in assay [3] was 0.09 OD450; in assay [4] it was 0.082 OD450.

B6: EP665, EP575 back-mutation clone (ligand)
chain: APASSSTKKTQLQLEHLLLDLQMILNGINNYKNPLLTDMLTRKFYMPKKATELKHLQCLEEELKPLEEVLNLAQSKNFHLRNRGLISDINNIVLALKGSETTFMCEYADETATIVEFLNRWITFSQSIISTLT
notes: as for B2
As to B6, the “Average OD (450 nm)” value in assay [3] amounted to 0.096 OD450; in assay [4], 0.077 OD450.

B7: EP576, mammalian cell-produced, with F35L, R38D and F42R (ligand)
chain: APASSSTKKTQLQLEHLLLDLQMILNGINNYKNPLLTDMLTRKFYMPKKATELKHLQCLEEELKPLEEVLNLAQSKNFHLLPRNKISKTKVMVHELKGSETTFMCEYADETATIVEFLNRWITFSQSIISTLT
notes: His-Flag tag not in the parts; also called 2021EP21-C10
For B7, the binding result in assay [5] and in assay [6] was “no binding (tested: 1000 nM)” each time.

B8: EP581, mammalian cell-produced (ligand)
chain: APASSSTKKTQLQLEHLLLDLQMILNGINNYKNPLLTDMLTRKFYMPKKATELKHLQCLEEELKPLEEVLNLAQSKNFHLRSREVVSRIDAIILELKGSETTFMCEYADETATIVEFLNRWITFSQSIISTLT
notes: also called 2021EP16-C10
As to B8, the OD450 in assay [1] and in assay [2] was 0.3 to 0.7 od throughout.

B9: EP573, mammalian cell-produced, with F35L, R38D and F42R (ligand)
chain: APASSSTKKTQLQLEHLLLDLQMILNGINNYKNPLLTDMLTRKFYMPKKATELKHLQCLEEELKPLEEVLNLAQSKNFHLNRTDLVGDVNATIKALKGSETTFMCEYADETATIVEFLNRWITFSQSIISTLT
notes: His-Flag tag not in the parts; also called 2021EP16-E02
In the case of B9, the binding result in assay [7] is “no binding (tested: OD450 < 0.1; 1 µM)”. For the same molecule, the OD450 in assay [1] was 0.3 to 0.7 od.

B10: EP580, mammalian cell-produced, with F35L, R38D and F42R (ligand)
chain: APASSSTKKTQLQLEHLLLDLQMILNGINNYKNPLLTDMLTRKFYMPKKATELKHLQCLEEELKPLEEVLNLAQSKNFHLRIRDLLNKINELHRYIKGSETTFMCEYADETATIVEFLNRWITFSQSIISTLT
notes: His-Flag tag not in the parts; also called 2021EP16-H09
As for B10, the results for the binding result in assay [5] and in assay [7] were “no binding (tested: 1000 nM)” and “no binding (tested: OD450 < 0.1; 1 µM)”, respectively.

B11: EP575, mammalian cell-produced (ligand)
chain: APASSSTKKTQLQLEHLLLDLQMILNGINNYKNPLLTDMLTRKFYMPKKATELKHLQCLEEELKPLEEVLNLAQSKNFHLRNKGILGDISNIVLALKGSETTFMCEYADETATIVEFLNRWITFSQSIISTLT
notes: also called 2021EP16-D09
Turning to B11, the binding result in assay [6] is recorded as “no binding (tested: 1000 nM)”. In addition, the OD450 in assay [1] fell in the range of 0.3 to 0.7 od. The “Average OD (450 nm)” value in assay [3] came to 0.093 OD450; in assay [4], 0.113 OD450.
